From US20110319337A1 (published 2011)

Key:
Test in all cases: cell-based or functional assay
[1] = target: Frizzled 7 (expressed in transfected 293T cells)
[2] = target: Frizzled 8 receptor (expressed in transfected cells) (human, UniProt Q9H461 28-694)
[3] = target: Frizzled 9 (expressed in transfected 293T cells)
[4] = target: T1, Frizzled 6 (expressed in transfected 293T cells)
T1 sequence (O60353 whole entry, species assumed, looked up): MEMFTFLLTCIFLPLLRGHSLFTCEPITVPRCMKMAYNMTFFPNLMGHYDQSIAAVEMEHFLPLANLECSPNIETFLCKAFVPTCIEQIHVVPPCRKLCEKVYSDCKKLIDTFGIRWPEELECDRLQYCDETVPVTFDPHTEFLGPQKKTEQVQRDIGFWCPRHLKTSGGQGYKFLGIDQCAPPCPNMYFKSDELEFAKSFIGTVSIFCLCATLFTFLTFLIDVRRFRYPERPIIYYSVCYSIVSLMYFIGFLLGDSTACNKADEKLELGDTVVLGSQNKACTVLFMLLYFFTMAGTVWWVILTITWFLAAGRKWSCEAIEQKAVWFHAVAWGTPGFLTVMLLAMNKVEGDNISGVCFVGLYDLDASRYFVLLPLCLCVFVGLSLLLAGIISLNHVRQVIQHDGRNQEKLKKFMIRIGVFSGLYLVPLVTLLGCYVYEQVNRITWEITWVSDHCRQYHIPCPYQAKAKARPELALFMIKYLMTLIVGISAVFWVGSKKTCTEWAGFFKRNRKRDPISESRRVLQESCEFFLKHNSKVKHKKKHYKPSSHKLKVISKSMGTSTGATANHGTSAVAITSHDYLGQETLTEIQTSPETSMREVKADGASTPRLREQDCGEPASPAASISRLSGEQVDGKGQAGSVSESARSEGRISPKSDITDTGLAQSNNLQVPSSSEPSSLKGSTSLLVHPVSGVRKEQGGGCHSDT

Frizzled 8 receptor (expressed in transfected cells), sequence (Q9H461 28-694 limits assumed): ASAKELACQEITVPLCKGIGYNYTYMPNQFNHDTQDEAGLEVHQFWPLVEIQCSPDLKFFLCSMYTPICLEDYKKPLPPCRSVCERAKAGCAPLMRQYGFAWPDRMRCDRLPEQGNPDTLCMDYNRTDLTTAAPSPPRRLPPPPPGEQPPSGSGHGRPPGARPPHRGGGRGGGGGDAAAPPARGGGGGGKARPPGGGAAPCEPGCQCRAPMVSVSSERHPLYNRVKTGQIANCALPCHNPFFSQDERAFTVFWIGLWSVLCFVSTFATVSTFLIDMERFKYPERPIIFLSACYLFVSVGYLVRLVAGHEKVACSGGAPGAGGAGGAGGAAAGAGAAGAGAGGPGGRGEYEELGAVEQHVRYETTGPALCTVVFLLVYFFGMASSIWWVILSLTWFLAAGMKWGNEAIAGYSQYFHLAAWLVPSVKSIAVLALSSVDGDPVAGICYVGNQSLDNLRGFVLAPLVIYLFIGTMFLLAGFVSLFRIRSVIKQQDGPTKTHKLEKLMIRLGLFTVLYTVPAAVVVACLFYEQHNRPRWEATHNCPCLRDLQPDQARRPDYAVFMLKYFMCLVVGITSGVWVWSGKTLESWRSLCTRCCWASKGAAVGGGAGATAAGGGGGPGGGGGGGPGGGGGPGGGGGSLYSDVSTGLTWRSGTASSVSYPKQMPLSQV

- TCF-activity (TOPflash reporter, 293T cells) compared to vector control [1]: 4 fold
- TCF-activity (TOPflash reporter, 293T cells), increase due to the presence of Wnt2 [1]: ~2 fold
- TCF activity (TOPflash reporter) in Human Embryonic Kidney 293 cells and A549 cells compared to vector control [2]: 5 fold
- luciferase activity (TOPflash TCF reporter, 293T cells co-expressing Wnt2 and the Fzd receptor) compared to vector alone [2]: 25 fold
- luciferase activity (TOPflash TCF reporter, 293T cells co-expressing Wnt2 and the Fzd receptor) over vector control alone [3]: 16 fold
- luciferase activity (TOPflash TCF reporter, 293T cells co-expressing Wnt2 and the Fzd receptor) [4]: 10 fold
B1: wild type Wnt2 (expressed from transfected Wnt2 cDNA) (ligand)
chain: SWWYMRATGGSSRVMCDNVPGLVSSQRQLCHRHPDVMRAISQGVAEWTAECQHQFRQHRWNCNTLDRDHSLFGRVLLRSSRESAFVYAISSAGVVFAITRACSQGEVKSCSCDPKKMGSAKDSKGIFDWGGCSDNIDYGIKFARAFVDAKERKGKDARALMNLHNNRAGRKAVKRFLKQECKCHGVSGSCTLRTCWLAMADFRKTGDYLWRKYNGAIQVVMNQDGTGFTVANERFKKPTKNDLVYFENSPDYCIRDREAGSLGTAGRVCNLTSRGMDSCEVMCCGRGYDTSHVTRMTKCGCKFHWCCAVRCQDCLEALDVHTCKAPKNADWTTAT
